According to paper PMC9722718, “Structural basis of sequence-specific RNA recognition by the antiviral factor APOBEC3G”:

How the values were obtained:
GST-NCp7 = GST-NCp7 (HIV-1, UniProt P04591 378-432); test: EMSA; best binder; EMSA: 10 nM 6-FAM RNA, 50 mM HEPES pH 7.5, 250 mM NaCl, 1 mM DTT, 0.4 U/ul RNase inhibitor, 10% glycerol, on ice 10 min, 8% native PAGE at 4 C; settings: protein: recombinant; tags: N-terminal GST; label: 6-FAM; single strand
rA3GR8 = rA3GR8 (Macaca mulatta (rhesus macaque), UniProt M1GSK9 1-138+=AEAG+147-383, internal_change); test: EMSA; EMSA: 10 nM 6-FAM RNA, 50 mM HEPES pH 7.5, 250 mM NaCl, 1 mM DTT, 0.4 U/ul RNase inhibitor, 10% glycerol, on ice 10 min, 8% native PAGE at 4 C; settings: protein: recombinant; tags: 6xHis-SUMO removed by PreScission protease; label: 6-FAM; single strand
Sequence of rA3GR8 (M1GSK9 entry or part of it): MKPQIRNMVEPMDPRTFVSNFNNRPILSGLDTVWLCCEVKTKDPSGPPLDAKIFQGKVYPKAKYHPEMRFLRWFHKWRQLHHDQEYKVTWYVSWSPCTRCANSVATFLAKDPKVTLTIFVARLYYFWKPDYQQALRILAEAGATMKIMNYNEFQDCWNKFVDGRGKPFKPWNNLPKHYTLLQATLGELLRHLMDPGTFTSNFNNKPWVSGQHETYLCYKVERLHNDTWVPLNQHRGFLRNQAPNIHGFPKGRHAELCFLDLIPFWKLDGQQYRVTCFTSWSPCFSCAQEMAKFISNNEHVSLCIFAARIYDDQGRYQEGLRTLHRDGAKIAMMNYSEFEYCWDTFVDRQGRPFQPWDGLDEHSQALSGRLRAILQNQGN

rA3GR8/E259A [1] = target: T1, rA3GR8/E259A (Macaca mulatta (rhesus macaque), UniProt M1GSK9 1-138+=AEAG+147-383, E259A;internal_change); test: X-ray crystallography; 1:1; EMSA: 10 nM 6-FAM RNA, 50 mM HEPES pH 7.5, 250 mM NaCl, 1 mM DTT, 0.4 U/ul RNase inhibitor, 10% glycerol, on ice 10 min, 8% native PAGE at 4 C; settings: protein: recombinant; tags: 6xHis-SUMO removed by PreScission protease; single strand
T1 sequence (M1GSK9 entry or part of it E259A/| E259A E259A): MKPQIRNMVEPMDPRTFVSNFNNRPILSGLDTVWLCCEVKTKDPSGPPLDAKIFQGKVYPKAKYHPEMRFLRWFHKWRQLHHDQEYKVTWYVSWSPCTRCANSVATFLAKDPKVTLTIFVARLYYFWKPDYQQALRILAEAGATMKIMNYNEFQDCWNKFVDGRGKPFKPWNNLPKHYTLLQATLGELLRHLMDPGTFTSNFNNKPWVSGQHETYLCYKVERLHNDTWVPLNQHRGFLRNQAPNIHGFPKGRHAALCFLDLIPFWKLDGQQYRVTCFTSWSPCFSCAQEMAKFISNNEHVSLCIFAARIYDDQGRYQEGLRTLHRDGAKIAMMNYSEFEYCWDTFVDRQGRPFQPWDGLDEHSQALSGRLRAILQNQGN

rA3GR8/E259A [2] = target: T1, rA3GR8/E259A; test: X-ray crystallography; 1.83 A; 1:1; EMSA: 10 nM 6-FAM RNA, 50 mM HEPES pH 7.5, 250 mM NaCl, 1 mM DTT, 0.4 U/ul RNase inhibitor, 10% glycerol, on ice 10 min, 8% native PAGE at 4 C; settings: protein: recombinant; tags: 6xHis-SUMO removed by PreScission protease; single strand

B1: RNA3-GG (ssRNA)
RNA: UUUUGGUUUU
binding result (GST-NCp7): binds

B2: RNA3-AA (ssRNA)
RNA: UUUUAAUUUU
Kd (rA3GR8): 10 nM

B3: RNA3-GA (ssRNA)
RNA: UUUUGAUUUU
Kd (rA3GR8): 47 nM

B4: RNA3-AG (ssRNA)
RNA: UUUUAGUUUU
Kd (rA3GR8): 200 nM

B5: RNA3-AAxtal (ssRNA)
RNA: UUUUAAUUUU
binding result (rA3GR8/E259A [1]): binds

B6: RNA3-GAxtal (ssRNA)
RNA: UUUUGAUUUU
binding result (rA3GR8/E259A [2]): binds
